# Key:
# [1] = Table 2. Comparison of representative compounds C1-C13 of this invention versus carboplatin.
# Description: Table printed on a drawing sheet, FIGURE 15
# Title: Table 2. Comparison of representative compounds C1-C13 of this invention versus carboplatin.
# The patent's description of the figure: FIG. 15 is Table 2.
# First reader's note: Relative TGI is an in-vivo tumor growth inhibition class relative to carboplatin; C2, C3 and C5 are printed with 'Ama-Pt' (hyphen) instead of 'Ama=Pt'.
# [2] = Platinum release from PBS (percent small Pt species released from polymer-platinum conjugate); assay type: physicochemical; conditions: PBS at 37° C.
# Method: The compound tested comprised a poly(N-(2-hydroxypropyl)methacrylamide (90%)-co-(N-(linker)-Pt complex)methacrylamide (10%)) polymer and either cis-diammine or 1R,2R-diaminocyclohexane (DACH) as the stable ligands/chelate of the Pt complex. The leaving-ligand comprised an N,O bidentate ligand with amidoaspartate (Asp) or amidomalonate (Ama).
# The percent of small platinum species released over time was measured by dissolving about 30 mg of the polymer-platinum conjugate in 15 mL of phosphate buffered saline (10 mM phosphate, 123 mM Cl^−) and incubating the solution at 37° C. in a water bath. At indicated times, 2.0 mL aliquots were transferred to a centrifugal filter with a 3 kDa nominal molecular weight cutoff (Centricon YM-3 from Millipore) and spun until >1.5 mL of filtrate had accumulated. The timed filtrates and the original solution were analyzed for platinum by ICP-OES. The percent of small Pt species released was determined using the formula: ((ppm Pt in filtrate)/(ppm Pt in stock solution)) X 100.
# [3] = system: B16F10 murine melanoma cells; test: B16F10 murine melanoma tumor growth inhibition in C57BL/6 mice; assay type: in vivo; conditions: each compound at its MTD (20 mgPt/kg vs. 50 mgPt/Kg), groups of ten mice
# Method: (§1) C57BL/6 mice (10 animals per compound treatment group) were dosed with the amount of compound indicated. The mice were inoculated subcutaneously in the right rear flank with 10^6 B16F10 murine melanoma cells. Beginning at day 6 post-implantation, tumor size was measured daily using calipers under light Methfurane anesthesia. The mass of the resulting tumor in milligrams was estimated using the formula W^2(L)/2 where W is the length of the shorter tumor dimension and L is the length of the longer dimension. Treatment was commenced when the tumor was 50-75 mg or larger. Each animal was followed individually so that Day 1 of treatment for each animal was the day on which that animal's tumor reached the appropriate size. The test compounds were administered […] through the tail vein using a volume of 0.2-0.3 mL per 20 grams body weight. The animals were observed and weighed daily prior to dosing to establish the proper dosing volume for that day and such was continued until the end of the study.
# Using the above procedure, a number of exemplary compounds of this invention were compared to carboplatin. […]
# [4] = Maximum tolerated dosage used in the B16F10 murine melanoma model; assay type: in vivo, C57BL/6 mice; conditions: mice
# Method: as §1, with “study. […]” for “study.”
# [5] = Platinum release from PBS (percent small Pt species released from polymer-platinum conjugate); assay type: physicochemical
Substance,% Pt Release ([2]; 3 h),% Pt Release ([2]; 24 h),other results
"poly(HPMA)-GGG-Ama=Pt=1R, 2R-DACH [C13] [listing 1 of 2 here]",,,Pt release (% at 24 h) [1]: 3.6 % at 24 h
poly(HPMA)-GFLG-Asp=Pt(NH3)2 [60a],1.95%,5.85%,
"poly(HPMA)-GG-Ama=Pt=1R,2R-DACH [53b]",1.3%,5.5%,
poly(HPMA)-GFLG-C3-Sulf-Ama=Pt(NH3)2 [75a],3.02%,5.44%,
"poly(HPMA)-GGG-Ama=Pt=1R, 2R-DACH [C13] [listing 2 of 2 here]",,,"delay in tumor growth, C13 versus C2 (FIG. 14) [3]: prolonged delay in tumor growth compared to compound C2; maximum tolerated dosage (MTD) [4]: 20 mgPt/kg"
"Poly(HPMA)-GG-Asp=Pt=1R,2R-DACH [54b]",3.20%,10.68%,
poly(HPMA)-GG-Ama=Pt(NH3)2 [53a],1.4%,4.6%,
p(HMPA)-GFLG-Ama=Pt=DACH [C2] [listing 1 of 2 here],,,Pt release (% at 24 h) [1]: 2.6 % at 24 h
poly(HPMA)-GGGG-Ama=PtDACH [57b],0.972%,3.173%,
p(HMPA)-GFLG-Ama=Pt=DACH [C2] [listing 2 of 2 here],,,maximum tolerated dosage (MTD) [4]: 50 mgPt/kg
poly(HPMA)-GG-Asp=Pt(NH3)2 [54a],,,Pt release in PBS at 38.C ([5]; 3 hr): 3.92%; Pt release in PBS at 38.C ([5]; 24 hr): 11.02%

# Reference: US7754684B2, “Macromolecular platinum chelates” (priority 2003, dated 2010)
